{
  "source": "paper doi:10.1101/2022.01.15.476311",
  "biological_target": "Toll-like receptor 2 (TLR2) purified protein (UniProt O60603)",
  "sequence (O60603 21-588)": "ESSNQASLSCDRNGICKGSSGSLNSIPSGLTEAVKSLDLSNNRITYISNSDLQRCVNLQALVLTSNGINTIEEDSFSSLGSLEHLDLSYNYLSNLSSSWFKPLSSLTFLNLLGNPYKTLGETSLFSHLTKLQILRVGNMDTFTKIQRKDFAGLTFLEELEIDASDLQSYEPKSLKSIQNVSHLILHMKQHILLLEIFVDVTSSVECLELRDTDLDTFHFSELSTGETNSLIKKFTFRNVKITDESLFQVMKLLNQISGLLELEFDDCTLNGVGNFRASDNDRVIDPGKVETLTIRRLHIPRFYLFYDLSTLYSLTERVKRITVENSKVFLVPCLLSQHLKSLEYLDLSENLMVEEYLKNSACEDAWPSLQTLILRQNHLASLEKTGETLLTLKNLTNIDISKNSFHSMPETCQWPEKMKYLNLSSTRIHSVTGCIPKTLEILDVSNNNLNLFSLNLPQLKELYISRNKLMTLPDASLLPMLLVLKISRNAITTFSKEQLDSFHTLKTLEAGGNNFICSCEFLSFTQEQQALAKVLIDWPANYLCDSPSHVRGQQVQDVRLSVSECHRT",
  "experiment": "BLI",
  "data": [
    {"substance": "PAM3CSK4 (peptide)", "values": [
      {"measurement": "Kd", "result": 1.67, "unit": "µM"}
    ]}
  ]
}
